Measured values: paper PMC13542264

Tests used:
[1] = target: gephyrin, endogenous in mouse brain (mouse (endogenous in brain)) (UniProt Q8BUV3); assay: non-reducing SDS-PAGE and Western blot; brain lysates of mice perfused with NEM-containing PBS; SDS sample buffer with 5 mM DTT or without reductant; shows only multimers that survive SDS
[2] = target: GCN4-GlyR, GCN4 receptor model for the glycine receptor β subunit; assay: co-sedimentation; sedimentation assay of in vitro phase separation: proteins mixed in 25 mM Tris pH 7.4, 150 mM NaCl, 10 min 25 °C, 17,000 x g 10 min 4 °C; pellet and supernatant on Coomassie gels; gephyrin oxidised or reduced
[3] = target: His-gephyrin, rat gephyrin P1, wild type, full length (rat); assay: SEC; analytical Superose 6 increase 5/10, 4 °C, 50 mM Tris/HCl, 300 mM NaCl pH 7.4; protein reduced with 1 mM TCEP, also the oxidised peak collected and re-reduced

Substance | fractional abundance of multimeric gephyrin [1] | percent of gephyrin in the pellet fraction [2] | stoichiometry N [3]
gephyrin, endogenous in mouse brain (from UniProt Q8BUV3 1-769) (natural protein) | 20% | – | –
His-gephyrin, rat gephyrin P1, wild type, full length (natural protein) | – | 60% | 6
